Test results published in article PMC8200818, “SPECT/CT Imaging, Biodistribution and Radiation Dosimetry of a ^177Lu-DOTA-Integrin αvβ6 Cystine Knot Peptide in a Pancreatic Cancer Xenograft Model” (Frontiers in Oncology, 2021).

Experiments:
in vivo = conditions: female, athymic NMRI-Foxn1^nu/Foxn1^nu, mouse, iv, 1 MBq, total radioactivity
Source text: For in vivo experiments, at least 8-week-old female athymic NMRI-Foxn1^nu/Foxn1^nu mice (Janvier Labs, Saint-Berthevin, France) were used. Animal care followed institutional guidelines and all experiments were approved by local animal research authorities. For the generation of tumor xenografts, 5 x 10^6 cells of Capan-2 cells were inoculated subcutaneously into the left and right shoulder (1:1 phosphate-buffered saline [PBS]/Matrigel Basement Membrane Matrix High Concentration, Corning, Corning, USA). Tumors were allowed to grow for two to four weeks (tumor volume > 100 mm^3) after cell inoculation.
Radiolabeling of the DOTA-integrin αvβ6 knottin was carried out manually using [^177Lu]LuCl3 and a reagent kit from ITG Isotope Technologies Garching GmbH (Garching, Germany). A total of 40 µL (stock solution of peptide at 1 µg/µL in 10% DMSO in water) was added to 500 µL of ascorbate buffer solution pH 5.0, prepared from the kit (composition not disclosed by vendor) and the resulting mixture was then added to 35 µL of [^177Lu]LuCl3 (2 GBq in aqueous 0.04 M HCl) and the reaction mixture was heated at 80 °C for 35 minutes followed by cooling for 10 minutes at room temperature. The product was then diluted with 0.5 mL of saline and the pH was adjusted to 7 using a 1 M aqueous solution of NaHCO3 prior to injection in mice. A reverse-phase HPLC system (Knauer GmbH, Germany) with a column (Eurospher II, C18, 250 × 4 mm) was used to determine the radiochemical purity of the radiotracer. The HPLC system was equipped with an Azura P.6.1L pump coupled with ultraviolet (Azura UVD 2.1L) and radiometric (γ-Raytest-Isotopenmessgeraete GmbH, Germany) detectors. The gradient elution system used mobile phase A (100% acetonitrile) and mobile phase B (deionized H2O containing 0.1% trifluoroacetic acid) and a flow rate of 1.0 mL/min. Starting with 0% A and 100% B, the gradient was increased to 100% A over 25 min and finally returned to initial gradient conditions within 5 min.
Tumor-bearing mice (n=4-5 per time point) were injected with approximately 1 MBq (22 pmol) of ^177Lu-DOTA-integrin αvβ6 knottin to the tail vein via a catheter. Mice (n=4-5 per time point) were sacrificed and dissected one, two, three and eight days post injection. Tumor, blood, stomach, pancreas, small intestine, colon, liver, spleen, kidney, heart, lung, muscle and femur samples were weighed and uptake of radioactivity was measured by a gamma counter.

[1] = Dosimetric calculation for human adult male (OLINDA/EXM 1.1)
Source text: Assuming that the organ-to-whole-body activity concentration ratio in mice would equal that in humans, the injected activity concentration (%IA/g) acquired from the mouse biodistribution study was transformed to human whole-organ percentage of injected activity per gram of tissue (%IA/g) human. The mouse uptake data were extrapolated to humans by relative scaling of mass and time using the following two equations,
(1) (%IA/organ)human=[(%IA/g)mouse×Mmouse(kg)×[m(g)/M(kg)]human
(2) thuman=tanimal[Mhuman/Manimal]^0.25
where %IA/g is percentage of injected activity per gram of tissue, %IA/organ is percentage of injected activity per organ; m is organ mass of mouse or human, M is body mass of mouse or human; t is time. The absorbed doses per activity were calculated by using the extrapolated human source organ residence times as input in the OLINDA/EXM 1.1 software (Organ Level Internal Dose Assessment Code, Vanderbilt University, Nashville, USA), with the reference adult male ([25]).

[2] = adult male human, extrapolated from mouse biodistribution

CC[C@H](C)[C@@H]1NC(=O)[C@@H](NC(=O)CNC(=O)CN2CCN(CC(=O)O)CCN(CC(=O)O)CCN(CC(=O)O)CC2)CSSC[C@@H]2NC(=O)[C@H](C)NC(=O)CNC(=O)[C@@H]3CCCN3C(=O)[C@@H]3CSSC[C@@H](C(=O)NCC(=O)O)NC(=O)[C@H](Cc4ccc(O)cc4)NC(=O)CNC(=O)[C@H](CC(N)=O)NC(=O)CNC(=O)[C@H](CCCNC(=N)N)NC(=O)[C@H](CSSC[C@H](NC(=O)[C@H](CCCNC(=N)N)NC(=O)[C@H](Cc4ccccc4)NC(=O)[C@H](CC(C)C)NC(=O)[C@H](CC(C)C)NC(=O)[C@H]([C@@H](C)O)NC(=O)CNC(=O)[C@H](CC(C)C)NC(=O)[C@H](CC(=O)O)NC(=O)[C@H]([C@@H](C)O)NC(=O)[C@H](CCCNC(=N)N)NC(=O)CNC(=O)[C@H](CC(N)=O)NC(=O)[C@H](CC(C)C)NC1=O)C(=O)N[C@@H](CCCNC(=N)N)C(=O)N[C@@H](CCCNC(=N)N)C(=O)N[C@@H](CC(=O)O)C(=O)N[C@@H](CO)C(=O)N[C@@H](CC(=O)O)C(=O)N3)NC(=O)[C@H]([C@@H](C)CC)NC2=O [^177Lu-DOTA-integrin αvβ6 knottin, metal not drawn]
tissue uptake at 24 h (in vivo; femur, Femur uptake, 24 h p.i., ~1 MBq i.v., nude mice, Capan-2 xenografts, mean ± SD (4 ≤ n ≤ 5)): 0.3 %ID/g | tissue uptake at 48 h (in vivo; femur, Femur uptake, 48 h p.i., ~1 MBq i.v., nude mice, Capan-2 xenografts, mean ± SD (4 ≤ n ≤ 5)): 0.45 %ID/g | tissue uptake at 72 h (in vivo; femur, Femur uptake, 72 h p.i., ~1 MBq i.v., nude mice, Capan-2 xenografts, mean ± SD (4 ≤ n ≤ 5)): 0.13 %ID/g | tissue uptake at 192 h (in vivo; femur, Femur uptake, 192 h p.i., ~1 MBq i.v., nude mice, Capan-2 xenografts, mean ± SD (4 ≤ n ≤ 5)): 0.07 %ID/g | tissue uptake at 24 h (in vivo; heart, Heart uptake, 24 h p.i., ~1 MBq i.v., nude mice, Capan-2 xenografts, mean ± SD (4 ≤ n ≤ 5)): 0.16 %ID/g | tissue uptake at 48 h (in vivo; heart, Heart uptake, 48 h p.i., ~1 MBq i.v., nude mice, Capan-2 xenografts, mean ± SD (4 ≤ n ≤ 5)): 0.07 %ID/g | tissue uptake at 72 h (in vivo; heart, Heart uptake, 72 h p.i., ~1 MBq i.v., nude mice, Capan-2 xenografts, mean ± SD (4 ≤ n ≤ 5)): 0.08 %ID/g | tissue uptake at 192 h (in vivo; heart, Heart uptake, 192 h p.i., ~1 MBq i.v., nude mice, Capan-2 xenografts, mean ± SD (4 ≤ n ≤ 5)): 0.04 %ID/g | tissue uptake at 24 h (in vivo; kidney, Kidney uptake, 24 h p.i., ~1 MBq i.v., nude mice, Capan-2 xenografts, mean ± SD (4 ≤ n ≤ 5)): 19.2 %ID/g | tissue uptake at 48 h (in vivo; kidney, Kidney uptake, 48 h p.i., ~1 MBq i.v., nude mice, Capan-2 xenografts, mean ± SD (4 ≤ n ≤ 5)): 12.5 %ID/g | tissue uptake at 72 h (in vivo; kidney, Kidney uptake, 72 h p.i., ~1 MBq i.v., nude mice, Capan-2 xenografts, mean ± SD (4 ≤ n ≤ 5)): 14.7 %ID/g | tissue uptake at 192 h (in vivo; kidney, Kidney uptake, 192 h p.i., ~1 MBq i.v., nude mice, Capan-2 xenografts, mean ± SD (4 ≤ n ≤ 5)): 2.28 %ID/g | tissue uptake at 24 h (in vivo; kidney, Kidney uptake, day 1 p.i., ~1 MBq i.v., Capan-2 xenograft mice): 19.2 ± 2.5 %ID/g | tissue uptake at 72 h (in vivo; kidney, Kidney uptake, day 3 p.i., ~1 MBq i.v., Capan-2 xenograft mice): 14.7 ± 4.5 %ID/g | tissue uptake at 192 h (in vivo; kidney, Kidney uptake, day 8 p.i., ~1 MBq i.v., Capan-2 xenograft mice): 2.3 ± 0.4 %ID/g | tissue uptake at 24 h (in vivo; lung, Lung uptake, 24 h p.i., ~1 MBq i.v., nude mice, Capan-2 xenografts, mean ± SD (4 ≤ n ≤ 5)): 1.74 %ID/g | tissue uptake at 48 h (in vivo; lung, Lung uptake, 48 h p.i., ~1 MBq i.v., nude mice, Capan-2 xenografts, mean ± SD (4 ≤ n ≤ 5)): 0.53 %ID/g | tissue uptake at 72 h (in vivo; lung, Lung uptake, 72 h p.i., ~1 MBq i.v., nude mice, Capan-2 xenografts, mean ± SD (4 ≤ n ≤ 5)): 0.52 %ID/g | tissue uptake at 192 h (in vivo; lung, Lung uptake, 192 h p.i., ~1 MBq i.v., nude mice, Capan-2 xenografts, mean ± SD (4 ≤ n ≤ 5)): 0.06 %ID/g | tissue uptake at 24 h (in vivo; muscle, Muscle uptake, 24 h p.i., ~1 MBq i.v., nude mice, Capan-2 xenografts, mean ± SD (4 ≤ n ≤ 5)): 0.26 %ID/g | tissue uptake at 48 h (in vivo; muscle, Muscle uptake, 48 h p.i., ~1 MBq i.v., nude mice, Capan-2 xenografts, mean ± SD (4 ≤ n ≤ 5)): 0.11 %ID/g | tissue uptake at 72 h (in vivo; muscle, Muscle uptake, 72 h p.i., ~1 MBq i.v., nude mice, Capan-2 xenografts, mean ± SD (4 ≤ n ≤ 5)): 0.1 %ID/g | tissue uptake at 192 h (in vivo; muscle, Muscle uptake, 192 h p.i., ~1 MBq i.v., nude mice, Capan-2 xenografts, mean ± SD (4 ≤ n ≤ 5)): 0.04 %ID/g | tissue uptake at 24 h (in vivo; pancreas, Pancreas uptake, 24 h p.i., ~1 MBq i.v., nude mice, Capan-2 xenografts, mean ± SD (4 ≤ n ≤ 5)): 0.65 %ID/g | tissue uptake at 48 h (in vivo; pancreas, Pancreas uptake, 48 h p.i., ~1 MBq i.v., nude mice, Capan-2 xenografts, mean ± SD (4 ≤ n ≤ 5)): 0.17 %ID/g | tissue uptake at 72 h (in vivo; pancreas, Pancreas uptake, 72 h p.i., ~1 MBq i.v., nude mice, Capan-2 xenografts, mean ± SD (4 ≤ n ≤ 5)): 0.29 %ID/g | tissue uptake at 192 h (in vivo; pancreas, Pancreas uptake, 192 h p.i., ~1 MBq i.v., nude mice, Capan-2 xenografts, mean ± SD (4 ≤ n ≤ 5)): 0.03 %ID/g | tissue uptake at 192 h (in vivo; spleen, Spleen uptake, 192 h p.i., ~1 MBq i.v., nude mice, Capan-2 xenografts, mean ± SD (4 ≤ n ≤ 5)): 0.04 %ID/g | tissue uptake at 24 h (in vivo; stomach, Stomach uptake, 24 h p.i., ~1 MBq i.v., nude mice, Capan-2 xenografts, mean ± SD (4 ≤ n ≤ 5)): 1.92 %ID/g | tissue uptake at 48 h (in vivo; stomach, Stomach uptake, 48 h p.i., ~1 MBq i.v., nude mice, Capan-2 xenografts, mean ± SD (4 ≤ n ≤ 5)): 1.01 %ID/g | tissue uptake at 72 h (in vivo; stomach, Stomach uptake, 72 h p.i., ~1 MBq i.v., nude mice, Capan-2 xenografts, mean ± SD (4 ≤ n ≤ 5)): 0.83 %ID/g | tissue uptake at 192 h (in vivo; stomach, Stomach uptake, 192 h p.i., ~1 MBq i.v., nude mice, Capan-2 xenografts, mean ± SD (4 ≤ n ≤ 5)): 0.14 %ID/g | tissue uptake at 24 h (in vivo; tail, Tail activity, 24 h p.i., ~1 MBq i.v., nude mice, Capan-2 xenografts, mean ± SD (4 ≤ n ≤ 5)): 0.31 %ID/g | tissue uptake at 48 h (in vivo; tail, Tail activity, 48 h p.i., ~1 MBq i.v., nude mice, Capan-2 xenografts, mean ± SD (4 ≤ n ≤ 5)): 0.2 %ID/g | tissue uptake at 24 h (in vivo; tumor, Tumor uptake, 24 h p.i., ~1 MBq (22 pmol) i.v., nude mice, Capan-2 xenografts, mean ± SD (4 ≤ n ≤ 5)): 3.13 %ID/g | tissue uptake at 24 h (in vivo; tumor, Tumor uptake, day 1 p.i., ~1 MBq i.v., Capan-2 xenografts, mean ± S.E.M.): 3.1 ± 0.6 %ID/g | tissue uptake at 48 h (in vivo; tumor, Tumor uptake, day 2 p.i., ~1 MBq i.v., Capan-2 xenografts, mean ± S.E.M.): 2.5 ± 0.4 %ID/g | tissue uptake at 72 h (in vivo; tumor, Tumor uptake, day 3 p.i., ~1 MBq i.v., Capan-2 xenografts, mean ± S.E.M.): 3.5 ± 0.9 %ID/g | tissue uptake at 192 h (in vivo; tumor, Tumor uptake, day 8 p.i., ~1 MBq i.v., Capan-2 xenografts, mean ± S.E.M.): 1.2 ± 0.2 %ID/g | Expected absorbed dose, Liver [1, 2]: 9.34E-04 mSv/MBq | Expected absorbed dose, Thymus [1, 2]: 5.08E-06 rem/mCi | Dose-limiting organ ([1]; human projection, preliminary): The absorbed doses in the kidney propose it as the dose-limiting organ
